Data as given in PMC3459908 (2012).
One block for each molecule: values may come before it.

Columns and labels:
[1] = target: BMP2 (Homo sapiens) (UniProt P12643); experiment: SPR; details: cited from earlier work
[2] = target: T1, BMP6 (Homo sapiens, UniProt P22004); experiment: SPR
T1 chain: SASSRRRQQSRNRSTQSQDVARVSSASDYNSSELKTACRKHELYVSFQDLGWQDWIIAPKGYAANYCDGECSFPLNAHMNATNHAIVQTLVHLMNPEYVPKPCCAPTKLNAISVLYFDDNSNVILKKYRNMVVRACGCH

[3] = target: T2, BMP7 (Homo sapiens, UniProt P18075); experiment: SPR
T2 chain: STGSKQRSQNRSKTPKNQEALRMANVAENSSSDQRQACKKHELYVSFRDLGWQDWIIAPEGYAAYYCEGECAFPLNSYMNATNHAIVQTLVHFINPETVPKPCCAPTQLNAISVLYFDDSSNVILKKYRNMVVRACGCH

[4] = target: T3, BMP2 (Homo sapiens, UniProt P12643); experiment: SPR
T3 chain: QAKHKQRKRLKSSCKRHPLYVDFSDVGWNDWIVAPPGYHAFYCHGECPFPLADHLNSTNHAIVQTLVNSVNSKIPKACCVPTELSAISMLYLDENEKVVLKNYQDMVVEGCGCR

[5] = target: T4, BMP4 (Homo sapiens, UniProt P12644); experiment: SPR
T4 chain: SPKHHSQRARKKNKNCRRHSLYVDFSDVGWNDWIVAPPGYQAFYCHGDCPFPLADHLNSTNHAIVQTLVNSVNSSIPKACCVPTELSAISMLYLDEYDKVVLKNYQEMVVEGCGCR

[6] = target: T5, BMP5 (Homo sapiens, UniProt P22003); experiment: SPR
T5 chain: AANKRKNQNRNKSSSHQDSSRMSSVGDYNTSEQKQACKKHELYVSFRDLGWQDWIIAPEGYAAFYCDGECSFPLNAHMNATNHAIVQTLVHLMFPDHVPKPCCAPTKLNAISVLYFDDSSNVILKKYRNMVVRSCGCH

[7] = target: T6, BMP7 (Homo sapiens (Human),Homo sapiens …, UniProt P18075,P18075); experiment: SPR kinetic 1:1, BMP immobilised, full soluble RGM analyte
T6 chain 1: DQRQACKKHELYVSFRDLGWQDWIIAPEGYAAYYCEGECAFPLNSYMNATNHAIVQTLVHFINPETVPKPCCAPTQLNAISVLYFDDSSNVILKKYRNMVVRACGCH
T6 chain 2: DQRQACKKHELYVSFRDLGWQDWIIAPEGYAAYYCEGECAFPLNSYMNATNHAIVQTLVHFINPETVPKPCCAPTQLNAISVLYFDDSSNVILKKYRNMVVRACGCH

[8] = target: T7, BMP2 (Homo sapiens (Human),Homo sapiens …, UniProt P12643,P12643); experiment: as above
T7 chain 1: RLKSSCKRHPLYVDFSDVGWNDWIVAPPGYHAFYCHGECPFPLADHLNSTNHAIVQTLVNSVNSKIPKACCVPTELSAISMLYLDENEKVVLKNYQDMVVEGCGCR
T7 chain 2: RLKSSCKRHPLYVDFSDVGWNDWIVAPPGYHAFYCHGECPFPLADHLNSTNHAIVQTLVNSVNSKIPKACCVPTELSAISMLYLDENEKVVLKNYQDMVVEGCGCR

[9] = target: T8, BMP6 (Homo sapiens (Human),Homo sapiens …, UniProt P22004,P22004); experiment: as above
T8 chain 1: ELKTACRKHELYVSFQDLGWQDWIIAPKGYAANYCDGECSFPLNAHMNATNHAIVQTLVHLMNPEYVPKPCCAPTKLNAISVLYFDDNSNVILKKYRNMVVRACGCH
T8 chain 2: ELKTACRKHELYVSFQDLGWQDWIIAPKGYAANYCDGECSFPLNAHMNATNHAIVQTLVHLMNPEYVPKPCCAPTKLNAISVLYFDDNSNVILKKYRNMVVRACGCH

[10] = target: T9, BMP5 (Homo sapiens (Human),Homo sapiens …, UniProt P22003,P22003); experiment: as above
T9 chain 1: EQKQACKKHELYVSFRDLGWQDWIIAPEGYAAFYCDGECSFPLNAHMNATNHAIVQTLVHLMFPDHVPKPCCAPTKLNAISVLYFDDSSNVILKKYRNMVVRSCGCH
T9 chain 2: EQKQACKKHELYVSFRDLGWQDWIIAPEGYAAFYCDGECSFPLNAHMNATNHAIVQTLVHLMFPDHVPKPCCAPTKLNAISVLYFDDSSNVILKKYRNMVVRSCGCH

[11] = target: T10, BMP9 (Homo sapiens (Human),Homo sapiens …, UniProt Q9UK05,Q9UK05); experiment: as above
T10 chain 1: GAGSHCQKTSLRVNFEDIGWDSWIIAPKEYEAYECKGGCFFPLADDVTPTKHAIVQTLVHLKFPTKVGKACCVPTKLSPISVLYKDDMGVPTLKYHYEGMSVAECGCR
T10 chain 2: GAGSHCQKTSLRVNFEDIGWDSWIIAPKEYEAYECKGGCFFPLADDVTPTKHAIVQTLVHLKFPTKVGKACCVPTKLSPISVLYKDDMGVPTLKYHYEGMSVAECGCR

[12] = target: T11, BMP4 (Homo sapiens (Human),Homo sapiens …, UniProt P12644,P12644); experiment: as above
T11 chain 1: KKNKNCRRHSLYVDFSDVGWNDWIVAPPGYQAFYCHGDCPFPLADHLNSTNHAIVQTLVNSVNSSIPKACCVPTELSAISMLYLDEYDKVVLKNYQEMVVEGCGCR
T11 chain 2: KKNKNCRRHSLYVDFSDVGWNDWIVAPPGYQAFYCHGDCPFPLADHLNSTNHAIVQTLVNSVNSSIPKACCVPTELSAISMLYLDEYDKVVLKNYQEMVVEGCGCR

Kd [2]: 0.028 µM
B3: RGMB (protein)
chain: GDCQQPAQCRIQKCTTDFVSLTSHLNSAVDGFDSEFCKALRAYAGCTQRTSKACRGNLVYHSAVLGISDLMSQRNCSKDGPTSSTNPEVTHDPCNYHSHAGAREHRRGDQNPPSYLFCGLFGDPHLRTFKDNFQTCKVEGAWPLIDNNYLSVQVTNVPVVPGSSATATNKITIIFKAHHECTDQKVYQAVTDDLPAAFVDGTTSGGDSDAKSLRIVERESGHYVEMHARYIGTTVFVRQVGRYLTLAIRMPEDLAMSYEESQDLQLCVNGCPLSERIDDGQGQVSAILGHSLPRTSLVQAWPGYTLETANTQCHEKMPVKDIYFQSCVFDLLTTGDANFTAAAHSALEDVEALHPRKERWHIFPSSGN

Kd [7]: 0.02 µM | Kd [8]: 0.0094 µM | Kd [9]: 0.0081 µM | Kd [10]: 0.017 µM | Kd [11]: > 0.2 µM | Kd [12]: 0.0045 µM
B4: RGMC (protein)
chain: QCKILRCNAEYVSSTLSLRGGGSSGALRGGGGGGRGGGVGSGGLCRALRSYALCTRRTARTCRGDLAFHSAVHGIEDLMIQHNCSRQGPTAPPPP

Kd [7]: 0.166 µM | Kd [8]: 0.0055 µM | Kd [10]: 0.033 µM | Kd [11]: > 0.03 µM | Kd [12]: 0.0026 µM
B6: RGMB (protein)
chain: QCRIQKCTTDFVSLTSHLNSAVDGFDSEFCKALRAYAGCTQRTSKACRGNLVYHSAVLGISDLMSQRNCSKDGPTSSTNP

Second part, the molecule before the results:

Molecule: HJV (from UniProt Q6ZVN8)
Kd [1]: 0.14 µM

B1: HJV (protein)
chain: QCKILRCNAEYVSSTLSLRGGGSSGALRGGGGGGRGGGVGSGGLCRALRSYALCTRRTARTCRGDLAFHSAVHGIEDLMIQHNCSRQGPTAPPPPRGPALPGAGSGLPAPDPCDYEGRFSRLHGRPPGFLHCASFGDPHVRSFHHHFHTCRVQGAWPLLDNDFLFVQATSSPMALGANATATRKLTIIFKNMQECIDQKVYQAEVDNLPVAFEDGSINGGDRPGGSSLSIQTANPGNHVEIQAAYIGTTIIIRQTAGQLSFSIKVAEDVAMAFSAEQDLQLCVGGCPPSQRLSRSERNRRGAITIDTARRLCKEGLPVEDAYFHSCVFDVLISGDPNFTVAAQAALEDARAFLPDLEKLHLFPSD
Kd [2]: 0.0081 µM | Kd [3]: 0.02 µM | Kd [4]: 0.0094 µM | Kd [5]: 0.0045 µM | Kd [6]: 0.017 µM

B2: RGMA (protein)
chain: PHLRTFTDRFQTCKVQGAWPLIDNNYLNVQVTNTPVLPGSAATATSKLTIIFKNFQECVDQKVYQAEMDELPAAFVDGSKNGGDKHGANSLKITEKVSGQHVEIQAKYIGTTIVVRQVGRYLTFAVRMPEEVVNAVEDWDSQGLYLCLRGCPLNQQIDFQAFHTNAEGTGARRLAAASPAPTAPETFPYETAVAKCKEKLPVEDLYYQACVFDLLTTGDVNFTLAAYYALEDVKMLHSNKDKLHLYERTRDLPGRA
Kd [2]: 0.055 µM | Kd [3]: 0.063 µM | Kd [4]: 0.022 µM | Kd [5]: 0.014 µM | Kd [6]: 0.083 µM

B5: RGMA (protein)
chain: PCKILKCNSEFWSATSGSHAPASDDTPEFCAALRSYALCTRRTARTCRGDLAYHSAVHGIEDLMSQHNCSKDGPTSQPRL
Kd [11]: > 0.1 µM
